Test results from publication PMC11147780, “Vaccination induces broadly neutralizing antibody precursors to HIV gp41” (Nature Immunology, 2024).

Target: T1, 10E8-GT10.2 epitope scaffold (designed scaffold 10E8-GT10.2 with …, N-linked glycosylation sites added (positions not given))
T1 chain: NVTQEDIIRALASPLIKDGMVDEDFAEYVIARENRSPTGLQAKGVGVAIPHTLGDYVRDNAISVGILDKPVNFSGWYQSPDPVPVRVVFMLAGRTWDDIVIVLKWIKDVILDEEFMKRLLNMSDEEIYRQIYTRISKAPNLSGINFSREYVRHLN

| Binder | Kd [nM] |
| --- | --- |
| NHP-10E8_MPER-GT10v55_W3-18 (antibody, V domains shown) VH: EVQLVESGGGLVQPGGSLRLSCAASGFTFSDYAMDWVRQAPGKGLEWVGYIRSKDYGGTAEYAASVKGRLTISRDDSKNTAYLQMNSLKTEDTAVYYCSRGRGYYHFWSGYYTPYNRFDVWGPGVLVTVSS VL: DVVMTQSPLSLPVTPGQPASISCRSSQSLVHSDGKTYLNWLQQKPGQPPRRLIYQVSNRDSGVPDRFSGSGAGTDFTLKISRVEAEDVGVYYCVQGTNVPWTFGQGTKVEIK | 1.16 |
| NHP-10E8_MPER-GT10v55_W3-19 (antibody, V domains shown) VH: EVQLVESGGGLVQPGGSLRLSCAASGFTFSNYWMSWVRQAPGKGLEWVGFIKNKADGGTAAYAESVKGRFSISRDDSKNTLYLQMNSLKTEDTAVYYCTRDVGRYNFWSGYYSHNRIDVWGPGVLVTVSS VL: SYELTQPPSVSVSPGQMARITCGGDNLGSKYVHWFQQKPAQAPALVIYDDSDRPSGIPERFSGSKSGNTATLTISGVESGDEADYYCQVWDSGTDHPLFGGGTRLTV | 345 |
| MPER-051 (antibody, V domains shown) VH: QVQLVESGGGLVKPGGSLRLSCAASGFTFSDYYMSWIRQAPGKGLEWVSYISSSGSTIYYADSVKGRFTISRDNAKNSLYLQMNSLRAEDTAVYYCASLAHTYYDFWSGYYDRYYGMDVWGKGTTVTVSS VL: not shown | 13000 |
| MPER-052 (antibody, V domains shown) VH: EVQLVESGGGLVQPGRSLRLSCTASGFTFGDYAMSWVRQAPGKGLEWVGFIRSKAYGGTTEYAASVKGRFTISRDDSKSIAYLQMNSLKTEDTAVYYCTRDLMGYYDFWSGYYRGHYGMDVWGKGTTVTVSS VL: AIQMTQSPSSLSASVGDRVTITCRASQGIRNDLGWYQQKPGKAPKLLIYAASSLQSGVPSRFSGSGSGTDFTLTISSLQPEDFATYYCLQDYNYPLTFGGGTKVEIK | 4100 |
| MPER18_d21_45.1_v55_m3_B08 (antibody, V domains shown) VH: QVQLQQPGAELVKPGASVKLSCKASGYTFTSYWMHWVKQRPGQGLEWIGMIRPNSGSTNYNERFKSKATLTVDKSSSTAYMQLSSLTSGDSAVYYCAKGGTWTMDYWGQGTSVTVSS VL: DIVMTQSPSSLSVSAGEKVTMICKSSQSLLNSGNQKNYLAWYQQKPGQPPKLLIYGASTRESGVPDRFTGSGSGTDFTLTISSVQAEDLAVYYCQNDHSYPLTFGAGTKLELK | 245 |
| MPER18_d21_45.1_v55_m3_C07 (antibody, V domains shown) VH: QVQLKQSGPGLVQPSQSLSITCTVSGFSLTNYDIHWVRQSPGKGLEWLGVIWSGGSTDYNAGFISRLSISKDNSKSQVFFKMNSLQGDDTAIYYCARGGGYYEDYVMDYWGQGTSVTVSS VL: DIQMTQSPASLSASVGETVTITCRASGNIHNYLAWYQQKQGESPHLLVYNAKTLADGVPSRFSGSDSGTQYSLKINSLQPEDFGSYYCQHFWTTPYTFGGGTKLEIK | 985 |
| MPER18_d21_45.1_v55_m3_D01 (antibody, V domains shown) VH: QVQLKQSGPGLVQPSQSLSITCTVSGFSLTNYDVHWVRQSPGKGLAWLGVIWSGGSTDYNATFISRLSISKDNSKTQVFFKMNSLQADDTAIYYCARGGGYYEDYAMDYWGQGTSVTVSS VL: NIVLTQSPASLAVSLGQRATISCRASESVDTYGNSFMHWYQLKPGQPPKLLIYLASNLESGVPARFSGSGSRTDFTLTIDPVEADDAATYYCQQNNEDPYTFGGGTELEIQ | 3.38 |
| MPER18_d21_45.1_v55_m3_D12 (antibody, V domains shown) VH: QVQLQQSGAELMKPGASVILSCKATGYTFTGYWIEWVKLRPGHGLEWIGEILPGNSSTKYNEKFKGKATFTADTSSNTANMQLSSLTTEDSAIYYCARRWNDYDGVAWFGYWGQGTLVSVSA VL: DIQMTQSPASLSASVGETVTITCRASGNIHNYLAWYQQKQGKSPQLLVYSAKTLADGVPSRFSGSGSGTQYSLKINSLQPEDFGSYYCQHFWSTPYTFGGGTKLEIK | 1250 |
| MPER18_d21_45.1_v55_m3_F02 (antibody, V domains shown) VH: QVQLKQSGPGLVQPSQSLSITCTVSGFSLTSNGVHWVRQSPGKGLDWLGVIWTGGSTDYNTTFLSRLSISKDNSKSQVFFKMNSLQADDTAIYYCARGGGYYEDYAMDYWGQGTSVTVSS VL: DIQMTQSPASLSASVGETVTITCRASGNIHNYLAWYQQKQGKSPQLLVYNAKTLADGVPSRFSGSGSGTQYSLKINSLQPEDFGSYCCQHFWSTPYTFGGGTKLEIR | 94.6 |
